The assay deals with cynomolgus CD40 overexpressed on CHO cells (cynomolgus) [GFP: P42212]. The assay can be described thus: flow cytometry on CHO cells expressing cynomolgus CD40. In general terms: A flow cytometer gives signals particle by particle.

As a reminder, the EC50 is the concentration giving half of the maximal effect. Read a low EC50 as higher potency in that assay. Consider CP870893-IgG2 (antibody), for which the EC50 is 7.28 nM.
